Data taken from article PMC5586252, “PP2A-B′ holoenzyme substrate recognition, regulation and role in cytokinesis” (Cell Discovery, 2017).
Blank lines part the entries; values can stand above or below the binder they belong to.

Columns and labels:
[1] = target: B′γ1 regulatory subunit (UniProt Q13362-2 1-449); assay: ITC; 1 mM peptide titrated to 20–50 μM B′γ1; 20 mM HEPES pH 7.5, 200 mM NaCl; VP-ITC; details: both partners purified
[2] = target: T1, B′ε regulatory subunit (UniProt Q16537 1-467); assay: pull-down; about 10 μg GST-tagged B′-binding motif or GST-pCyk4 on glutathione (GS4B) resin; 10 μg holoenzyme, B′ε or PR70 added; 25 mM Tris pH 8.0, 150 mM NaCl, 3 mM DTT; SDS-PAGE, Coomassie; details: both partners purified
T1 construct: PP2A regulatory subunit B′ε, full-length; prey in a GST pull-down, so probably with the GST tag cleaved by TEV; source: E. coli DH5α, purified (GS4B, anion exchange, gel filtration)
T1 sequence (Q16537 whole entry): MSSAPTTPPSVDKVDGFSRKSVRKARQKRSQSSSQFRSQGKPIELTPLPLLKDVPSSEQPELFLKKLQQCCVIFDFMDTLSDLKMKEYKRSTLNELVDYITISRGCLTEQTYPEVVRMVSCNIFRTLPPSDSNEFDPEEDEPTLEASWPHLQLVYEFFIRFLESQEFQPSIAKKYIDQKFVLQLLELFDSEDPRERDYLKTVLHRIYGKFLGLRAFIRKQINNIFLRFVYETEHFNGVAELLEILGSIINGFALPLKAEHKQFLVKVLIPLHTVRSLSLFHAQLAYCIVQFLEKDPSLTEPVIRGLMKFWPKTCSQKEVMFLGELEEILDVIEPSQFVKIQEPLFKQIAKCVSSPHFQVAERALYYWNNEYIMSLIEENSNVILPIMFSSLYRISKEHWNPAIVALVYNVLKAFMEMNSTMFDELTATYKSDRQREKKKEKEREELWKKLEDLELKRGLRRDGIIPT

Kd [1]: 1590 nM
fold stronger binding than the native Cyk4 peptide [1]: 15 fold
B1: Cyk4 S149E peptide (synthetic, phosphomimetic) (peptide)
chain: LSTIDEEGS

binding result [2]: binds
B2: GST-pCyk4 (1–177), Plk1-phosphorylated (domain or fragment, human, UniProt Q9H0H5 1-177, looked up)
chain: MDTMMLNVRNLFEQLVRRVEILSEGNEVQFIQLAKDFEDFRKKWQRTDHELGKYKDLLMKAETERSALDVKLKHARNQVDVEIKRRQRAEADCEKLERQIQLIREMLMCDTSGSIQLSEEQKSALAFLNRGQPSSSNAGNKRLSTIDESGSILSDISFDKTDESLDWDSSLVKTFKL
modifications: phosphorylated by Plk1: mono- to pentakis-phosphorylated forms; sites of the tetrakis form S149, S157, S164 and S170
notes: also called GST-Cyk4; source: phosphorylated by Plk1; not shown: GST, N-terminal, kept
